Experimental data published in US20240209100A1 (DIAGONAL THERAPEUTICS, published 2024).

T1: IL-18 receptor (IL-18Rα/IL-18Rβ) overexpressed on HEK-Blue IL-18 cells (Homo sapiens (Human), UniProt Q13478 19-541; O95256 20-599)
T1 sequence 1: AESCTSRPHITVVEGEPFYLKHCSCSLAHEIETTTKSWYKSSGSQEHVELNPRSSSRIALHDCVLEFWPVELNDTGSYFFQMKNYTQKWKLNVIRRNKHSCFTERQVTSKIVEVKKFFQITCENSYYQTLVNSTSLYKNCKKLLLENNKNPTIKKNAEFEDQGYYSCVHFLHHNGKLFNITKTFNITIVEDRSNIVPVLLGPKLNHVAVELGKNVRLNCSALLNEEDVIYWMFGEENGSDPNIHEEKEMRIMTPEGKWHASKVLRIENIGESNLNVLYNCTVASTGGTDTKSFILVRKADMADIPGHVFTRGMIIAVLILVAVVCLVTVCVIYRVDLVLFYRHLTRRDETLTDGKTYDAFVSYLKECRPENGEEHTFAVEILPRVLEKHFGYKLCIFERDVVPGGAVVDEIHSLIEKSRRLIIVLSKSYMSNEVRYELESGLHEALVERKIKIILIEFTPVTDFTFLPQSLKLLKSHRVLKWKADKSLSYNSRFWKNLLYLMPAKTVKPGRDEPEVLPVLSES
T1 sequence 2: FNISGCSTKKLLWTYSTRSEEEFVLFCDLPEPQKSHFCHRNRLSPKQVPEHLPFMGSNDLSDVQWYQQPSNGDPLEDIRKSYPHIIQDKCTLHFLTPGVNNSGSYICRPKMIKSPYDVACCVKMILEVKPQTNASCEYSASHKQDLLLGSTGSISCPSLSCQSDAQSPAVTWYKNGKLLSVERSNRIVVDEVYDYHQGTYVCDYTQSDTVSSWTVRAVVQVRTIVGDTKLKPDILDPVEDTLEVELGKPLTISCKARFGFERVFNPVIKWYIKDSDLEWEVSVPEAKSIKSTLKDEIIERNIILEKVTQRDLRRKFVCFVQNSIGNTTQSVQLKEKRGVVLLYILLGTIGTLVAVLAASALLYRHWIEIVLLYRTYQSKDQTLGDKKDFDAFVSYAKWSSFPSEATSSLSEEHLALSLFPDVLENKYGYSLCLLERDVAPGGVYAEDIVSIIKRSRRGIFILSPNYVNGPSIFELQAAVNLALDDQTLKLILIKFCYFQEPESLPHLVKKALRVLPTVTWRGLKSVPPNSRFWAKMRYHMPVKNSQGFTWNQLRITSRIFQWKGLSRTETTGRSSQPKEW

B1: DGL211 (bispecific antibody)
heavy 1: QVQLVESGGGLVQAGGSLRLSCAASGRTFSKHAMGWFRQAPGKEREFVAAIDWSGGSTYYADSVKGRFTISRDNAKNTVYLQMDSLKPEDTAVYYCAADSYTDYAQLWLPELESEYDYWGQGTLVTVSSEKSYGPPCPPCPAPEAAGAPSVFLFPPKPKDTLMISRTPEVTCVVVDVSHEDPEVKFNWYVDGVEVHNAKTKPREEQYNSTYRVVSVLTVLHQDWLNGKEYKCKVSNKALPAPIEKTISKAKGQPREPQVCTLPPSRDELTKNQVSLSCAVKGFYPSDIAVEWESNGQPENNYKTTPPVLDSDGSFFLVSKLTVDKSRWQQGNVFSCSVMHEALHNHYTQKSLSLSPGWSHPQFEK
heavy 2: QLQLVESGGGLVQAGGSLRLSCAASRSITFSHNVMGWYRQAPGKQRELVASIGSGGSTNYVDSVKGRATISRDNAKKTVYLQMNSLKPEDTAVYYCGVVVGVYRGSLGQGTLVTVSSEKSYGPPCPPCPAPEAAGAPSVFLFPPKPKDTLMISRTPEVTCVVVDVSHEDPEVKFNWYVDGVEVHNAKTKPREEQYNSTYRVVSVLTVLHQDWLNGKEYKCKVSNKALPAPIEKTISKAKGQPREPQVYTLPPCRDELTKNQVSLWCLVKGFYPSDIAVEWESNGQPENNYKTTPPVLDSDGSFFLYSKLTVDKSRWQQGNVFSCSVMHEALHNHYTQKSLSLSPGEPEA
B2: DGL209 (bispecific antibody)
heavy 1: QVQLVESGGGLVQAGGSLRLSCAASGRTFSKHAMGWFRQAPGKEREFVAAIDWSGGSTYYADSVKGRFTISRDNAKNTVYLQMDSLKPEDTAVYYCAADSYTDYAQLWLPELESEYDYWGQGTLVTVSSPLAPCPPCPAPEAAGAPSVFLFPPKPKDTLMISRTPEVTCVVVDVSHEDPEVKFNWYVDGVEVHNAKTKPREEQYNSTYRVVSVLTVLHQDWLNGKEYKCKVSNKALPAPIEKTISKAKGQPREPQVCTLPPSRDELTKNQVSLSCAVKGFYPSDIAVEWESNGQPENNYKTTPPVLDSDGSFFLVSKLTVDKSRWQQGNVFSCSVMHEALHNHYTQKSLSLSPGWSHPQFEK
heavy 2: QLQLVESGGGLVQAGGSLRLSCAASRSITFSHNVMGWYRQAPGKQRELVASIGSGGSTNYVDSVKGRATISRDNAKKTVYLQMNSLKPEDTAVYYCGVVVGVYRGSLGQGTLVTVSSPLAPCPPCPAPEAAGAPSVFLFPPKPKDTLMISRTPEVTCVVVDVSHEDPEVKFNWYVDGVEVHNAKTKPREEQYNSTYRVVSVLTVLHQDWLNGKEYKCKVSNKALPAPIEKTISKAKGQPREPQVYTLPPCRDELTKNQVSLWCLVKGFYPSDIAVEWESNGQPENNYKTTPPVLDSDGSFFLYSKLTVDKSRWQQGNVFSCSVMHEALHNHYTQKSLSLSPGEPEA
B3: DGL049 (bispecific antibody, V domains shown)
V domain 1: QVQLQESGGGLVQAGGSLRLSCIVSGSIVRIDFMGWYRQAPGKKRDMVATITTGGSTNYADSVKDRFTISRDNAKNTLSLQVNDLKPEDTAVYYCNSVVHTTSRPPVLYWGQGTQVTVSS
V domain 2: QVQLVESGGDLVLPGGSLKLSCEASGSISSRNSMAWYRRAPGKQRELVAAISSISSGGRTDYADFVKGRFTIFRDTAKNMVYLQMNNLKPEDTAVYDCDDPIRVASLAYDDWGQGTQVTVSS
B4: DGL210 (bispecific antibody)
heavy 1: QVQLVESGGGLVQAGGSLRLSCAASGRTFSKHAMGWFRQAPGKEREFVAAIDWSGGSTYYADSVKGRFTISRDNAKNTVYLQMDSLKPEDTAVYYCAADSYTDYAQLWLPELESEYDYWGQGTLVTVSSGGGGSGGGGSGGGGSGGGGSCPPCPAPEAAGAPSVFLFPPKPKDTLMISRTPEVTCVVVDVSHEDPEVKFNWYVDGVEVHNAKTKPREEQYNSTYRVVSVLTVLHQDWLNGKEYKCKVSNKALPAPIEKTISKAKGQPREPQVCTLPPSRDELTKNQVSLSCAVKGFYPSDIAVEWESNGQPENNYKTTPPVLDSDGSFFLVSKLTVDKSRWQQGNVFSCSVMHEALHNHYTQKSLSLSPGWSHPQFEK
heavy 2: QLQLVESGGGLVQAGGSLRLSCAASRSITFSHNVMGWYRQAPGKQRELVASIGSGGSTNYVDSVKGRATISRDNAKKTVYLQMNSLKPEDTAVYYCGVVVGVYRGSLGQGTLVTVSSGGGGSGGGGSGGGGSGGGGSCPPCPAPEAAGAPSVFLFPPKPKDTLMISRTPEVTCVVVDVSHEDPEVKFNWYVDGVEVHNAKTKPREEQYNSTYRVVSVLTVLHQDWLNGKEYKCKVSNKALPAPIEKTISKAKGQPREPQVYTLPPCRDELTKNQVSLWCLVKGFYPSDIAVEWESNGQPENNYKTTPPVLDSDGSFFLYSKLTVDKSRWQQGNVFSCSVMHEALHNHYTQKSLSLSPGEPEA
B5: DGL212 (bispecific antibody)
heavy 1: QVQLVESGGGLVQAGGSLRLSCAASGRTFSKHAMGWFRQAPGKEREFVAAIDWSGGSTYYADSVKGRFTISRDNAKNTVYLQMDSLKPEDTAVYYCAADSYTDYAQLWLPELESEYDYWGQGTLVTVSSDKTHTCPPCPAPEAAGAPSVFLFPPKPKDTLMISRTPEVTCVVVDVSHEDPEVKFNWYVDGVEVHNAKTKPREEQYNSTYRVVSVLTVLHQDWLNGKEYKCKVSNKALPAPIEKTISKAKGQPREPQVCTLPPSRDELTKNQVSLSCAVKGFYPSDIAVEWESNGQPENNYKTTPPVLDSDGSFFLVSKLTVDKSRWQQGNVFSCSVMHEALHNHYTQKSLSLSPGWSHPQFEK
heavy 2: not shown
B6: DGL214 (bispecific antibody)
heavy 1: B5 heavy 1
heavy 2: not shown
B7: DGL213 (bispecific antibody)
heavy 1: B5 heavy 1
heavy 2: QLQLVESGGGLVQAGGSLRLSCAASRSITFSHNVMGWYRQAPGKQRELVASIGSGGSTNYVDSVKGRATISRDNAKKTVYLQMNSLKPEDTAVYYCGVVVGVYRGSLGQGTLVTVSSCPPCPAPEAAGAPSVFLFPPKPKDTLMISRTPEVTCVVVDVSHEDPEVKFNWYVDGVEVHNAKTKPREEQYNSTYRVVSVLTVLHQDWLNGKEYKCKVSNKALPAPIEKTISKAKGQPREPQVYTLPPCRDELTKNQVSLWCLVKGFYPSDIAVEWESNGQPENNYKTTPPVLDSDGSFFLYSKLTVDKSRWQQGNVFSCSVMHEALHNHYTQKSLSLSPGEPEA
B8: DGL208 (bispecific antibody)
heavy 1: QVQLVESGGGLVQAGGSLRLSCAASGRTFSKHAMGWFRQAPGKEREFVAAIDWSGGSTYYADSVKGRFTISRDNAKNTVYLQMDSLKPEDTAVYYCAADSYTDYAQLWLPELESEYDYWGQGTLVTVSSPLAPDKTHTCPPCPAPEAAGAPSVFLFPPKPKDTLMISRTPEVTCVVVDVSHEDPEVKFNWYVDGVEVHNAKTKPREEQYNSTYRVVSVLTVLHQDWLNGKEYKCKVSNKALPAPIEKTISKAKGQPREPQVCTLPPSRDELTKNQVSLSCAVKGFYPSDIAVEWESNGQPENNYKTTPPVLDSDGSFFLVSKLTVDKSRWQQGNVFSCSVMHEALHNHYTQKSLSLSPGWSHPQFEK
heavy 2: not shown
B9: DGL094 (bispecific antibody, V domains shown)
V domain 1: QVQLVESGGGLVQAGGSLRLSCAASGRTFSSYTMGWFRQAPGKEREFVAAISWSAGRTYYADSVKGRFTISRDNAKNTVYLQMNSLKPEDTAVYFCAAEEAPDWAPIDCSGYGCLSLYDYWGQGTQVTVSS
V domain 2: QVQLVESGGGLVLPGESLRLSCVVSGTIDNINSMGWYRQAPGKQRELVAYITKLGSANYADSVEGRFTISRDNAKKTVHLQMNSLKPEDTAVYYCHANERGRITWAQGTQVTVSS
B10: DGL092 (bispecific antibody, V domains shown)
V domain 1: QVQLVESGGGLVQAGGSLRLSCAASGRTFSKHAMGWFRQAPGKEREFVAAIDWSGGSTYYADSVKGRFTISRDNAKNTVYLQMDSLKPEDTAVYYCAADSYTDYAQLWLPELESEYDYWGQGTQVTVSS
V domain 2: EVQLVESGGGLVQAGGSLRLSCAASGRTFRNYHMGWFRQAPGQEREFVAAISSSGGKTSYPDSVNGRFTISRDNAKNTVYLQMNNLKVEDTAVYYCAADPRYWVAAGGSEPENVEVWGQGTLVTVSS
B11: DGL097 (bispecific antibody, V domains shown)
V domain 1: QVQLVESGGGLVQAGGSLRLSCAASGRTFSSYDMGWFRQAPGKEREFVAALRWSGGSTSYADSVKGRFTISRDNAKNTVYLHMNSLKPEDTAVYYCAATLETDSGTYWADYWGQGTQVTVSS
V domain 2: QVQLVESGGGLVQAGGSLRLSCVASGTFFQIHVMGWYRQAPGKQRELVAFIINNGGTRYADSVKGRFTISRDYAKNTVYLQMNSLKPEDTAVYYCNTEGTYRGRYSTDNWGQGTQVTVSS

Tests used:
[1] = target: T1, IL-18 receptor (IL-18Rα/IL-18Rβ) …; test: cell-based or functional assay
[2] = target: T1, IL-18 receptor (IL-18Rα/IL-18Rβ) …; test: cell-based or functional assay; remark: listed apart in the source

| Binder | HEK-Blue IL-18: Abs 405 at 100 nM [1] [Abs] | HEK-Blue IL-18: Fold over Background [1] [fold] | HEK-Blue IL-18: Abs405 (Emax) [2] [Abs] | HEK-Blue IL-18: EC50 [2] [nM] |
| --- | --- | --- | --- | --- |
| B1 | 1.5 | 6.7 | – | – |
| B2 | 2 | 8.7 | – | – |
| B3 | – | – | 0.34 | 0.01 |
| B4 | 1.1 | 4.6 | – | – |
| B5 | 1.4 | 6.2 | – | – |
| B6 | 1.1 | 4.7 | – | – |
| B7 | 1.5 | 6.4 | – | – |
| B8 | 1.4 | 5.9 | – | – |
| B9 | – | – | 0.7 | 0.019 |
| B10 | – | – | 0.61 | 0.019 |
| B11 | – | – | 0.45 | 0.014 |
